Reference: publication doi:10.1101/2020.08.14.250746 (bioRxiv, 2020)

Target: Untagged human calmodulin (recombinant) (human, UniProt P0DP23 1-149)
Experiment: pull-down

binding result: binds
Binder: FGKTKIFFRAGQVAYLEKLRADKLRAACIRIQKTIRGWLLRKRYLCMQR (domain or fragment) [GFP-myoVa-IQ1 (aa742-791)]
